# According to US20230140293A1:
# Columns and labels:
# Experiment in all cases: cell-based or functional assay
# [1] = biological target: CH0505.w4.3 Env, Env-pseudotyped virus produced in 293T cells (HIV-1)
# [2] = biological target: CH0505TF Env, Env-pseudotyped virus produced in 293T cells (HIV-1)
# [3] = biological target: CH0505TF Env, pseudotyped virus produced in 293S GnTI- cells (HIV-1)
# [4] = biological target: CH0505TF.G458Y Env, Env-pseudotyped virus produced in 293T cells (HIV-1)
# [5] = biological target: CH0505TF.G458Y Env, pseudotyped virus produced in 293S GnTI- cells (HIV-1)
# [6] = biological target: CH0505TF.gly3.197 Env, Env-pseudotyped virus produced in 293T cells (HIV-1)
# [7] = biological target: CH0505TF.gly3.197 Env, pseudotyped virus produced in 293S GnTI- cells (HIV-1)
# [8] = biological target: CH0505TF.gly3.276 Env, Env-pseudotyped virus produced in 293T cells (HIV-1)
# [9] = biological target: CH0505TF.gly3.276 Env, pseudotyped virus produced in 293S GnTI- cells (HIV-1)
# [10] = biological target: CH0505TF.gly3.461 Env, Env-pseudotyped virus produced in 293T cells (HIV-1)
# [11] = biological target: CH0505TF.gly3.461 Env, pseudotyped virus produced in 293S GnTI- cells (HIV-1)
# [12] = biological target: CH0505TF.gly4 Env, Env-pseudotyped virus produced in 293T cells (HIV-1)
# [13] = biological target: CH0505TF.gly4 Env, pseudotyped virus produced in 293S GnTI- cells (HIV-1)
# [14] = biological target: HIV-1 426c.DM (N460D/N463D) Env on Env-pseudotyped virus produced in 293T cells (HIV-1)
# [15] = biological target: HIV-1 426c.DM (N460D/N463D) Env on Env-pseudotyped virus produced in 293s/GnTI-/- cells (Man5-enrichment) (HIV-1)
# [16] = biological target: HIV-1 426c.SM (N276D) Env on Env-pseudotyped virus produced in 293T cells (HIV-1)
# [17] = biological target: HIV-1 426c.SM (N276D) Env on Env-pseudotyped virus produced in 293s/GnTI-/- cells (Man5-enrichment) (HIV-1)
# [18] = biological target: HIV-1 426c.TM (N276D/N460D/N463D) Env on Env-pseudotyped virus produced in 293T cells (HIV-1)
# [19] = biological target: HIV-1 426c.TM (N276D/N460D/N463D) Env on Env-pseudotyped virus produced in 293s/GnTI-/- cells (Man5-enrichment) (HIV-1)
# [20] = biological target: HIV-1 Env 426c, Env-pseudotyped virus produced in 293S GnTI- cells (Man5-enriched) (HIV-1 clade C strain 426c)
# [21] = biological target: HIV-1 Env 426c, Env-pseudotyped virus produced in 293T cells (HIV-1 clade C strain 426c)
# [22] = biological target: HIV-1 Env 426c.DM (N460D.N463D), Env-pseudotyped virus produced in 293S GnTI- cells (Man5-enriched) (HIV-1 clade C strain 426c)
# [23] = biological target: HIV-1 Env 426c.DM (N460D.N463D), Env-pseudotyped virus produced in 293T cells (HIV-1 clade C strain 426c)
# [24] = biological target: HIV-1 Env 426c.SM (N276D), Env-pseudotyped virus produced in 293S GnTI- cells (Man5-enriched) (HIV-1 clade C strain 426c)
# [25] = biological target: HIV-1 Env 426c.SM (N276D), Env-pseudotyped virus produced in 293T cells (HIV-1 clade C strain 426c)
# [26] = biological target: HIV-1 Env 426c.TM (N276D.N460D.N463D), Env-pseudotyped virus produced in 293S GnTI- cells (Man5-enriched) (HIV-1 clade C strain 426c)
# [27] = biological target: HIV-1 Env 426c.TM (N276D.N460D.N463D), Env-pseudotyped virus produced in 293T cells (HIV-1 clade C strain 426c)
# [28] = biological target: HIV-1 Env 426c.TM4 (S278R.G471S.N460D.N463D), Env-pseudotyped virus produced in 293S GnTI- cells (Man5-enriched) (HIV-1 clade C strain 426c)
# [29] = biological target: HIV-1 Env 426c.TM4 (S278R.G471S.N460D.N463D), Env-pseudotyped virus produced in 293T cells (HIV-1 clade C strain 426c)
# [30] = biological target: HIV-1 clade C strain 426c Env on Env-pseudotyped virus produced in 293T cells (HIV-1)
# [31] = biological target: HIV-1 clade C strain 426c Env on Env-pseudotyped virus produced in 293s/GnTI-/- cells (Man5-enrichment) (HIV-1)
# [32] = biological target: HIV-1 CH0505TF (CH505 transmitted/founder) Env on Env-pseudotyped virus produced in 293T cells (HIV-1)
# [33] = biological target: HIV-1 CH0505TF.G458Y Env on Env-pseudotyped virus produced in 293T cells (HIV-1)
# [34] = biological target: HIV-1 CH0505TF.N280D Env on Env-pseudotyped virus produced in 293T cells (HIV-1)
# [35] = biological target: HIV-1 CH0505TF.S365P Env on Env-pseudotyped virus produced in 293T cells (HIV-1)
# [36] = biological target: CH0505TF Env, Env-pseudotyped virus produced in 293S GnTI- cells (Man5-enriched) (HIV-1)
# [37] = biological target: CH0505TF.G458Y Env, Env-pseudotyped virus produced in 293S GnTI- cells (Man5-enriched) (HIV-1)
# [38] = biological target: CH0505TF.gly3.197 Env, Env-pseudotyped virus produced in 293S GnTI- cells (Man5-enriched) (HIV-1)
# [39] = biological target: CH0505TF.gly3.276 Env, Env-pseudotyped virus produced in 293S GnTI- cells (Man5-enriched) (HIV-1)
# [40] = biological target: CH0505TF.gly3.461 Env, Env-pseudotyped virus produced in 293S GnTI- cells (Man5-enriched) (HIV-1)
# [41] = biological target: CH0505TF.gly4 Env, Env-pseudotyped virus produced in 293S GnTI- cells (Man5-enriched) (HIV-1)
Substance,IC50 (µg/ml) in TZM-bl [1],IC50 (µg/ml) in TZM-bl [2],IC50 (µg/ml) in TZM-bl [3],IC50 (µg/ml) in TZM-bl [4],IC50 (µg/ml) in TZM-bl [5],IC50 (µg/ml) in TZM-bl [6],IC50 (µg/ml) in TZM-bl [7],IC50 (µg/ml) in TZM-bl [8],IC50 (µg/ml) in TZM-bl [9],IC50 (µg/ml) in TZM-bl [10],IC50 (µg/ml) in TZM-bl [11],IC50 (µg/ml) in TZM-bl [12],IC50 (µg/ml) in TZM-bl [13],ID50/IC50 in TZM-bl [14],ID50/IC50 in TZM-bl [15],ID50/IC50 in TZM-bl [16],ID50/IC50 in TZM-bl [17],ID50/IC50 in TZM-bl [18],ID50/IC50 in TZM-bl [19],IC50 (µg/ml) in TZM-bl [20],other results
IgG1b12 (antibody),< 0.02 µg/mL,0.98 µg/mL,0.61 µg/mL,0.1 µg/mL,0.22 µg/mL,0.68 µg/mL,0.26 µg/mL,0.007 µg/mL,0.01 µg/mL,0.011 µg/mL,0.02 µg/mL,0.004 µg/mL,0.001 µg/mL,> 25 µg/mL,> 25 µg/mL,> 25 µg/mL,> 25 µg/mL,> 25 µg/mL,> 25 µg/mL,> 25 µg/mL,IC50 (µg/ml) in TZM-bl [21]: > 25 µg/mL; IC50 (µg/ml) in TZM-bl [22]: > 25 µg/mL; IC50 (µg/ml) in TZM-bl [23]: > 25 µg/mL; IC50 (µg/ml) in TZM-bl [24]: > 25 µg/mL; IC50 (µg/ml) in TZM-bl [25]: > 25 µg/mL; IC50 (µg/ml) in TZM-bl [26]: > 25 µg/mL; IC50 (µg/ml) in TZM-bl [27]: > 25 µg/mL; IC50 (µg/ml) in TZM-bl [28]: > 25 µg/mL; IC50 (µg/ml) in TZM-bl [29]: > 25 µg/mL; ID50/IC50 in TZM-bl [30]: > 25 µg/mL; ID50/IC50 in TZM-bl [31]: > 25 µg/mL
N6 (antibody),0.01 µg/mL,0.06 µg/mL,0.016 µg/mL,0.02 µg/mL,0.008 µg/mL,0.01 µg/mL,0.003 µg/mL,0.003 µg/mL,0.004 µg/mL,0.004 µg/mL,0.002 µg/mL,0.001 µg/mL,0.001 µg/mL,–,–,–,–,–,–,–,IC50 (µg/ml) in TZM-bl [32]: 0.06 µg/mL; IC50 (µg/ml) in TZM-bl [33]: 0.02 µg/mL; IC50 (µg/ml) in TZM-bl [34]: > 17 µg/mL; IC50 (µg/ml) in TZM-bl [35]: 0.02 µg/mL
PGT151 (antibody),> 25 µg/mL,0.01 µg/mL,–,0.01 µg/mL,–,0.01 µg/mL,–,0.007 µg/mL,–,0.01 µg/mL,–,0.01 µg/mL,–,0.01 µg/mL,2.2 µg/mL,0.01 µg/mL,1.9 µg/mL,0.01 µg/mL,2.5 µg/mL,1.6 µg/mL,IC50 (µg/ml) in TZM-bl [36]: > 5 µg/mL; IC50 (µg/ml) in TZM-bl [37]: > 5 µg/mL; IC50 (µg/ml) in TZM-bl [38]: > 5 µg/mL; IC50 (µg/ml) in TZM-bl [39]: > 5 µg/mL; IC50 (µg/ml) in TZM-bl [40]: > 5 µg/mL; IC50 (µg/ml) in TZM-bl [41]: 0.13 µg/mL; IC50 (µg/ml) in TZM-bl [21]: 0.01 µg/mL; IC50 (µg/ml) in TZM-bl [22]: 2.2 µg/mL; IC50 (µg/ml) in TZM-bl [23]: 0.01 µg/mL; IC50 (µg/ml) in TZM-bl [24]: 1.9 µg/mL; IC50 (µg/ml) in TZM-bl [25]: 0.01 µg/mL; IC50 (µg/ml) in TZM-bl [26]: 2.5 µg/mL; IC50 (µg/ml) in TZM-bl [27]: 0.01 µg/mL; IC50 (µg/ml) in TZM-bl [28]: 2.9 µg/mL; IC50 (µg/ml) in TZM-bl [29]: 0.01 µg/mL; ID50/IC50 in TZM-bl [30]: 0.01 µg/mL; ID50/IC50 in TZM-bl [31]: 1.6 µg/mL
